Patent publication US8092810B2, “Use of polypeptides having antimicrobial activity” (Novozymes A/S, priority 2006, dated 2012)

Experiments:
[1] = tested on: gram-negative bacterial strains; experiment: MIC assay, summary over gram-negative strains; format: cell-based; details: gram-negative bacterial strains of Table 1
Experimental: (§1) Briefly, the MIC was determined by microbroth dilution assay in a 96 well plate. 4-5 colonies of each bacterium tested were added to 5 ml of MHB, placed in a 35° C. shaker until the OD 600 nm reached 0.08-0.10. The inoculum was diluted 1:100 and 50 microliters were added to each well which contained 50 microliters of serial two fold dilutions of Lento, vancomycin or ciprofloxacin. Each concentration of antibiotic or Lento was tested in duplicate. The plate was placed at 35° C. overnight. MICs were determined after 24 hours incubation and defined by the well containing the lowest amount of antibiotic with no visible growth.

[2] = tested on: Staphylococcus epidermidis ATCC 12228; experiment: MIC broth microdilution; format: cell-based; details: Staphylococcus epidermidis ATCC 12228, Gram +; MHB, 35° C., 24 hours
Experimental: as §1

[3] = tested on: Streptococcus pneumoniae ATCC 700676; experiment: MIC broth microdilution; format: cell-based; details: Streptococcus pneumoniae ATCC 700676, Gram +; MHB, 35° C., 24 hours
Experimental: as §1

[4] = tested on: Shigella dysenteriae ATCC 11835; experiment: MIC broth microdilution; format: cell-based; details: Shigella dysenteriae ATCC 11835, Gram −; MHB, 35° C., 24 hours
Experimental: as §1

[5] = tested on: Enterococcus faecium ATCC 51559; experiment: MIC broth microdilution; format: cell-based
Experimental: as §1

[6] = tested on: Staphylococcus aureus ATCC 29737; experiment: MIC broth microdilution; format: cell-based
Experimental: as §1

[7] = tested on: Staphylococcus aureus ATCC 29213; experiment: MIC broth microdilution; format: cell-based; details: Staphylococcus aureus ATCC 29213, Gram +; MHB, 35° C., 24 hours
Experimental: as §1

[8] = tested on: Streptococcus pneumoniae ATCC 49619; experiment: MIC broth microdilution; format: cell-based; details: Streptococcus pneumoniae ATCC 49619, Gram +; MHB, 35° C., 24 hours
Experimental: as §1

[9] = tested on: Enterococcus faecalis (VRE) ATCC 51299; experiment: MIC broth microdilution; format: cell-based
Experimental: as §1

[10] = tested on: Bacillus cereus ATCC 4342; experiment: MIC broth microdilution; format: cell-based
Experimental: as §1

[11] = tested on: Streptococcus pneumoniae (TCRSP) ATCC 700902; experiment: MIC broth microdilution; format: cell-based; details: Streptococcus pneumoniae (TCRSP) ATCC 700902, Gram +; MHB, 35° C., 24 hours
Experimental: as §1

[12] = tested on: Corynebacterium jeikeium ATCC 43734; experiment: MIC broth microdilution; format: cell-based; details: Corynebacterium jeikeium ATCC 43734, Gram +; MHB, 35° C., 24 hours
Experimental: as §1

[13] = tested on: Corynebacterium jeikeium ATCC 43216; experiment: MIC broth microdilution; format: cell-based; details: Corynebacterium jeikeium ATCC 43216, Gram +; MHB, 35° C., 24 hours
Experimental: as §1

[14] = tested on: Micrococcus luteus ATCC 9341; experiment: MIC broth microdilution; format: cell-based
Experimental: as §1

[15] = tested on: Streptococcus pneumoniae (PSRSP) ATCC 700671; experiment: MIC broth microdilution; format: cell-based; details: Streptococcus pneumoniae (PSRSP) ATCC 700671, Gram +; MHB, 35° C., 24 hours
Experimental: as §1

[16] = Thermostability by Differential Scanning calorimetry (DSC); format: physicochemical
Experimental: Differential Scanning calorimetry (DSC) was used to determine temperature stability of the Lento protein at pH 2.5, 4.0 and 7.0. Purified Lento in a concentration of about 2 mg/ml was dialysed over night at 4° C. against appropriate buffer and run on a VP-DSC instrument (MicroCal) with a constant scan rate of 1.5° C./min from 20 to 90° C. Data-handling was performed using the MicroCal Origin software (version 4.10), and denaturation temperature was defined as temperature at the apex of the enthalpy peak. […] In 10 mM sodium acetate, 50 mM NaCl, pH 4.0, Lento denatured at 69° C., and in 10 mM sodium phosphate, 50 mM NaCl, pH 7.0 the denaturation temperature was 60° C.

[17] = tested on: Burkholderia cepacia ATCC 25416; experiment: MIC broth microdilution; format: cell-based; details: Burkholderia cepacia ATCC 25416, Gram −; MHB, 35° C., 24 hours
[18] = tested on: Enterococcus faecium ATCC 51559; experiment: MBC determination; format: cell-based; details: concentration that kills 99.9%
Experimental: as §1
(§2) MBCs were determined as described by the NCCLS guidelines (cited above).

[19] = tested on: Staphylococcus aureus ATCC 29737; experiment: MBC determination; format: cell-based; details: concentration that kills 99.9%
Experimental: as §1, §2

[20] = tested on: Enterococcus faecalis (VRE) ATCC 51299; experiment: MBC determination; format: cell-based; details: concentration that kills 99.9%
Experimental: as §1, §2

[21] = tested on: Micrococcus luteus ATCC 9341; experiment: MBC determination; format: cell-based; details: concentration that kills 99.9%
Experimental: as §1, §2

[22] = tested on: all bacteria tested (Table 2); experiment: MBC versus MIC, bactericidal classification; format: cell-based; details: all bacteria tested with the exception of E. faecium ATCC 51559
Experimental: To determine the MBC, 10 microliters from each well with no growth was plated in duplicate and allowed to grow overnight on Mueller-Hinton agar (Difco Catalog number 225250, Becton Dickinson and Company, Sparks, Md., US; 2.0 g beef extract powder, 17.5 g acid digest of casein, 1.5 g starch, 17 g agar—per 1000 ml of water). The MBC is based on the inoculum concentration, which was determined by plating in duplicate 50 microliters of 10^−2, 10^−3, and 10^−4 of the inoculum used for MICs. MBCs were determined as described by the NCCLS guidelines (cited above). The MBC is the concentration of the tested compound that kills 99.9% of the microorganism inoculated into the well.
Based on this definition, Lento is bactericidal against all bacteria tested with the exception of E. faecium ATCC 51559.

[23] = tested on: Bacillus cereus ATCC 4342; experiment: MBC determination; format: cell-based; details: concentration that kills 99.9%
Experimental: Minimal inhibitory concentrations (MIC) and minimal bactericidal concentrations (MBC) were determined by broth microdilution in MHB as described by the NCCLS (National Committee for Clinical Laboratory Standards, in: Methods for Determining Bactericidal Activity of Antimicrobial Agents; Approved Guideline. National Committee for Clinical Laboratory Standards (M26-A), Vol. 19, 1999).
Briefly, the MIC was determined by microbroth dilution assay in a 96 well plate. 4-5 colonies of each bacterium tested were added to 5 ml of MHB, placed in a 35° C. shaker until the OD 600 nm reached 0.08-0.10. […] MICs were determined after 24 hours incubation and defined by the well containing the lowest amount of antibiotic with no visible growth.
To determine the MBC, 10 microliters from each well with no growth was plated in duplicate and allowed to grow overnight on Mueller-Hinton agar (Difco Catalog number 225250, Becton Dickinson and Company, Sparks, Md., US; 2.0 g beef extract powder, 17.5 g acid digest of casein, 1.5 g starch, 17 g agar—per 1000 ml of water). The MBC is based on the inoculum concentration, which was determined by plating in duplicate 50 microliters of 10^−2, 10^−3, and 10^−4 of the inoculum used for MICs. MBCs were determined as described by the NCCLS guidelines (cited above). […]

[24] = tested on: gram-positive bacterial strains; experiment: MIC assay, summary over gram-positive strains; format: cell-based; details: a number of gram-positive strains, with the exception of certain strains of Staphylococcus
Experimental: as §1

B1: Lento: Bacillus licheniformis polypeptide having amino acids 1-85 of SEQ ID NO: 2, purified from ATCC 14580 fermentation broth (protein)
chain: MKNHLYEKKKRKPLTRTIKATLAVLTMSIALVGGATVPSFAWVNPGYHYQYPSEGGTWRYGFVNAGLRSEYNHPTKVHGSTVQKL
modifications: Bacillus licheniformis ATCC 14580
For B1, which “antimicrobial effect on gram-negative bacterial strains” value [1] is on record?
The value was “uncertain if any antimicrobial effect”.

What about the MIC [2] of the same molecule?
The MIC was 128 microgram/ml.

What about the MIC [3] of the same molecule?
The MIC was 4 microgram/ml.

And the MIC [4]?
The MIC was over 256 microgram/ml.

What about the MIC ([5]; Enterococcus faecium ATCC 51559, Gram +, MHB, 35° C., 24 hours) of the same molecule?
The MIC was 4 microgram/ml.

What about the MIC ([5]; Table 2 (MBC results), Enterococcus faecium ATCC 51559) of the same molecule?
The MIC was 4 microgram/ml.

What about the MBC ([6]; Staphylococcus aureus ATCC 29737, Gram +, MHB, 35° C., 24 hours) of the same molecule?
Its MBC is 8-32 microgram/ml.

What about the MBC ([6]; Table 2 (MBC results), Staphylococcus aureus ATCC 29737) of the same molecule?
Its MBC is 32 microgram/ml.

And the MIC [7]?
Its MIC is 64 microgram/ml.

What about the MIC [8] of the same molecule?
Its MIC is 1-2 microgram/ml.

And the MIC ([9]; Enterococcus faecalis (VRE) ATCC 51299, Gram +, MHB, 35° C., 24 hours)?
Its MIC is 8 microgram/ml.

What about the MIC ([9]; Table 2 (MBC results), Enterococcus faecalis (VRE) ATCC 51299) of the same molecule?
The MIC was 64 microgram/ml.

What about the MIC ([10]; Bacillus cereus ATCC 4342, Gram +, MHB, 35° C., 24 hours) of the same molecule?
Its MIC is 0.5-1 microgram/ml.

What about the MIC ([10]; Table 2 (MBC results), Bacillus cereus ATCC 4342) of the same molecule?
Its MIC is 1 microgram/ml.

And the MIC [11]?
Its MIC is 4-8 microgram/ml.

What about the MIC [12] of the same molecule?
Its MIC is 2 microgram/ml.

What about the MIC [13] of the same molecule?
Its MIC is 0.125 microgram/ml.

And the MBC ([14]; Micrococcus luteus ATCC 9341, Gram +, MHB, 35° C., 24 hours)?
Its MBC is 8 microgram/ml.

And the MBC ([14]; Table 2 (MBC results), Micrococcus luteus ATCC 9341)?
The MBC was 8 microgram/ml.

And the MIC [15]?
The MIC was 2 microgram/ml.

What about the “denaturation temperature (DSC)” value ([16]; 10 mM citric acid, 50 mM sodium chloride, pH 2.5) of the same molecule?
The value was 55 °C.

And the “denaturation temperature (DSC)” value ([16]; 10 mM sodium acetate, 50 mM NaCl, pH 4.0)?
The value was 69 °C.

And the “denaturation temperature (DSC)” value ([16]; 10 mM sodium phosphate, 50 mM NaCl, pH 7.0)?
The value was 60 °C.

And the MIC [17]?
Its MIC is over 256 microgram/ml.

What about the MBC [18] of the same molecule?
The MBC was over 64 microgram/ml.

What about the MBC [19] of the same molecule?
Its MBC is 32 microgram/ml.

And the MBC [20]?
Its MBC is 64 microgram/ml.

What about the MBC [21] of the same molecule?
The MBC was 8 microgram/ml.

What about the “bactericidal (MBC within four fold of the MIC)” value [22] of the same molecule?
Its value is “bactericidal”.

And the MBC [23]?
The MBC was 1 microgram/ml.

And the “antimicrobial effect on gram-positive bacterial strains” value [24]?
Its value is “pronounced antimicrobial effect”.
